From PMC7040040

Target: T1, pE3-Aβ(3–18) monomer
T1 chain: EFRHDSGYEVHHQKLV
Assay: SPR (Biacore)
Conditions: chain shown with the change

- Kd: 162 nM
B1: humanized PBD-C06 (CDR-grafted IgG1:kappa version) VL:F41L (protein)
chain 1: QVQLVQSGAEVKKSGASVKVSCKASGYSFTGYTMNWVRQAPGQGLEWMGLINPYNGVTRYNQKFKGRVTLIRDTSTTTVYMELTSLTSEDTAVYYCAREAKREWDETYWGQGTLVTVSS
chain 2: DVVMTQSPLSLPVTLGQPASISCKSSQSLLYSDGKTYLNWLQQRPGQSPRRLIYLVSKLDSGVPDRFSGSGSGTDFTLKISRVEAEDVGVYYCVQGTHFPFTFGGGTKVEIK
